{
  "source": "patent US8969289",
  "molecules": {"B1": {"name": "SABA1.7-(ED)5G-Cys-PEG20-Amylin-CONH2 (designed binder)", "chain": "MGVSDVPRDLEVVAATPTSLLISWHSYYEQNSYYRITYGETGGNSPVQEFTVPYSQTTATISGLKPGVDYTITVYAVYGSKYYYPISINYRTEIEDEDEDEDEDGC", "modifications": "Maleimide-PEG20 spacer (X1) between the Cys after (ED)5G and the amylin peptide; disulfide bridge between the two Cys of the amylin part; C-terminal amidation"}, "B2": {"name": "SABA4.1 (designed binder)", "chain": "MGVSDVPRDLEMVAATPTSLLISWEDDSYYSRYYRITYGETGGNSPVQEFTVPSDLYTATISGLKPGVDYTITVYAVTYDVTDLIMHEPISINYRTEIDKPSQHHHHHH", "notes": "Core 4 Adnectin (carries a scaffold mutation) with AdNT1, AdCT1 and His6"}, "B3": {"name": "SABA5.1 (designed binder)", "chain": "B2 chain with M12V", "notes": "Scaffold-perfect version of SABA4 with the same BC, DE and FG loops; AdNT1, AdCT1 and His6"}, "B4": {"name": "SABA1-FGF21v1 (designed binder)", "chain": "MGVSDVPRDLEVVAATPTSLLISWHSYYEQNSYYRITYGETGGNSPVQEFTVPYSQTTATISGLKPGVDYTITVYAVYGSKYYYPISINYRTEIEKPSQGSGSGSGSGSGSGSPIPDSSPLLQFGGQVRQRYLYTDDAQQTEAHLEIREDGTVGGAADQSPESLLQLKALKPGVIQILGVKTSRFLCQRPDGALYGSLHFDPEACSFRELLLEDGYNVYQSEAHGLPLHLPGNKSPHRDPAPRGPARFLPLPGLPPALPEPPGILAPQPPDVGSSDPLSMVGPSQGRSPSYAS", "notes": "Single-chain fusion: SABA core 1 with AdNT1 leader and AdCT7 tail, (GS)7 linker, FGF21 core with FNT3 leader and C-terminal S; also called SABA-FGF21v1 fusion; FGF21-SABA fusion"}},
  "key": {"[1]": {"target": "β-klotho of differentiated 3T3-L1 adipocytes (mouse) (UniProt Q99N32)", "sequence (Q99N32 whole entry)": "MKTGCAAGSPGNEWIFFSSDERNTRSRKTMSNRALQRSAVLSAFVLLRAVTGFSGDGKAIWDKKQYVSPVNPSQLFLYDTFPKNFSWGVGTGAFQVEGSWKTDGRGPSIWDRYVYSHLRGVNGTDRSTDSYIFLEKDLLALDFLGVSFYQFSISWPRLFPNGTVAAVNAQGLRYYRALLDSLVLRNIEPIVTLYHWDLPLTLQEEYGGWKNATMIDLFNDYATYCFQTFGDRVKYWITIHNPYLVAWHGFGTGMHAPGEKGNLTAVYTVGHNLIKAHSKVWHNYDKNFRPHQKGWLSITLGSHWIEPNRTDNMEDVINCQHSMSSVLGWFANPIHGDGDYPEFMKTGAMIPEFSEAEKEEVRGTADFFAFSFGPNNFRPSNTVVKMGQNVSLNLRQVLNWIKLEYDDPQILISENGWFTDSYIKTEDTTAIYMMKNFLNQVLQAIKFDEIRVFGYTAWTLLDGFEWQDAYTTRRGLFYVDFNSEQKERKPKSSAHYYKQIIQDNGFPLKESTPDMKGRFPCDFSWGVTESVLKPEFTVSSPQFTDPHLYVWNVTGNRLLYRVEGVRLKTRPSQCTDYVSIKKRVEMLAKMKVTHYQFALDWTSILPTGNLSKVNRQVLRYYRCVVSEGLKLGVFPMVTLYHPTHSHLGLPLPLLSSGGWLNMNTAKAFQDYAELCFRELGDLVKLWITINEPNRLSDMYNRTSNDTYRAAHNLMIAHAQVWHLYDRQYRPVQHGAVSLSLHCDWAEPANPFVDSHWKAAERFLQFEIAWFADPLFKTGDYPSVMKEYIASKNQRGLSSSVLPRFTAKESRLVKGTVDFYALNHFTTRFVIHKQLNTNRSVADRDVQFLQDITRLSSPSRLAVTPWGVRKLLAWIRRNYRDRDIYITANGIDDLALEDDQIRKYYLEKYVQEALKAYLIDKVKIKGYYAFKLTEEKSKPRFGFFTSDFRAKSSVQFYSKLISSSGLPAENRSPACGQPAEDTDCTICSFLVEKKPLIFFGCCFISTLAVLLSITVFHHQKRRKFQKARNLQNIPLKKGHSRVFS", "assay": "cell-based or functional assay"}, "human β-klotho (human)": {"target": "human β-klotho (human) (UniProt Q86Z14)", "assay": "cell-based or functional assay"}, "Amylin receptor": {"target": "Amylin receptor (chimpanzee; human, UniProt O60896 24-148)", "sequence (O60896 24-148)": "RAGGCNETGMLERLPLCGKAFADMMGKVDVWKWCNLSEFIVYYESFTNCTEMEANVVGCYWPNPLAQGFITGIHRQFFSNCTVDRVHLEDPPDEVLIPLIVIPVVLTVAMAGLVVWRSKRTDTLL", "assay": "cell-based or functional assay"}, "human serum albumin [2]": {"target": "T1, human serum albumin (human, UniProt P02768 25-609)", "T1 construct": "mature; Purified or recombinant albumin from suppliers; also called HSA; HuSA", "assay": "comment in the summary table; Biacore at lowered pH; target not given, HSA by paragraph 278"}, "human serum albumin [3]": {"target": "T1, human serum albumin", "assay": "isothermal titration calorimetry (refers to FIG. 11)", "method": "SABA-FGF21 fusion protein plus buffer was placed in the instrument sample cell at a concentration range of 0.4 to 1.0 mg/mL protein. The matching buffer was placed in the reference cell. Concentrations were determined using extinction coefficients calculated from the protein sequences of the pure proteins. The instrument reaction cell was equilibrated at 37° C. […] The resultant thermogram data was fitted using Origin™ evaluation software package (Microcal Inc.) version 2.0.2 to estimate the stochiometry, enthalpy, and equilibrium disassociation constant (K_D) of the protein-protein binding reaction."}},
  "note": "Positions count from the first letter of the chain named. Positions of bridges follow the written chain, without caps; N, C: chain ends. No end group written: not given here.",
  "data": [
    {"molecule": "His-tagged FGF21 (from UniProt Q9NSA1 29-209) (ligand)", "values": [
      {"measurement": "EC50, pERK 1/2 in 3T3-L1 adipocytes", "setting": "[1]", "result": 4, "unit": "nM"},
      {"measurement": "Fold Activation, pERK 1/2 in 3T3-L1 adipocytes", "setting": "[1]", "result": 2.1, "unit": "fold"},
      {"measurement": "EC50 (potency), pERK 1/2 in HEK β-Klotho expressing stable cells", "setting": "human β-klotho (human)", "result": 7, "unit": "nM"},
      {"measurement": "Efficacy (% of His6-tagged FGF21 maximal activity), pERK 1/2 in HEK β-Klotho expressing stable cells", "setting": "human β-klotho (human)", "result": 100, "unit": "%"}
    ]},
    {"molecule": "KCNTATCATQRLANFLVRSSNNLGPVLPPTNVGSNTY-NH2 (disulfide 2-7)", "note": "[Amylin Control Peptide]", "values": [
      {"measurement": "Efficacy (% of native peptide ligand maximal activity), cellular cAMP assay", "setting": "Amylin receptor", "result": 100, "unit": "%"}
    ]},
    {"molecule": "B1", "values": [
      {"measurement": "Cell based Potency (EC50), cellular cAMP assay", "setting": "Amylin receptor", "result": 12.2, "unit": "nM"},
      {"measurement": "Efficacy (% of native peptide ligand maximal activity), cellular cAMP assay", "setting": "Amylin receptor", "result": 119, "unit": "%"}
    ]},
    {"molecule": "B2", "values": [
      {"measurement": "fold decrease in KD at pH < 6.0", "setting": "human serum albumin [2]", "result": "> 2", "unit": "fold"}
    ]},
    {"molecule": "B3", "values": [
      {"measurement": "fold decrease in KD at pH < 6.0", "setting": "human serum albumin [2]", "result": "> 2", "unit": "fold"}
    ]},
    {"molecule": "B4", "values": [
      {"measurement": "Kd", "setting": "human serum albumin [3]", "result": "~4", "unit": "nM"}
    ]}
  ]
}
